Measurements taken from US20220033483A1 (GUAGNDONG FEIPENG BIOLOGICAL, published 2022).

B1: Mutation 1-53 (antibody, V domains shown)
VH: QVQLQQSGTELAKPGASVKFSCKASGYTFSSYWMYWIKQRPGQGLEWIGYINPSTGHTDYNQRFKDKATLTADKSSSTAYMQLNSLTSEDSAVYYCARKYYGPFGMDYWGQGTSVTVSS
VL: EIFLTQSPAIMSASPGEKVTMTCSASTTVSYVHWYQQKSGTSPKRWIYDTSKLASGIPVRFSGSGSGTSYSLTISSMEAEDAATYYCQQWSTNPYTFGGGTKLEIKR
B2: Mutation 1-54 (antibody, V domains shown)
VH: QVQLQQSGTELAKPGASVKFSCKASGYTFSSYWMYWIKQRPGQGLEWIGYLNPSSGHTDYNQKFKDKATLTADKSSSTAYMQLNSLTSEDSAVYYCARRYFGPFGMDYWGQGTSVTVSS
VL: EIFLTQSPAIMSASPGEKVTMTCSASTTVSYVHWYQQKSGTSPKRWLYDTSKIASGIPVRFSGSGSGTSYSLTISSMEAEDAATYYCQQWSTQPYTFGGGTKLEIKR
B3: Mutation 1-55 (antibody, V domains shown)
VH: QVQLQQSGTELAKPGASVKFSCKASGYTFSTYWMYWIKQRPGQGLEWIGYLNPSSGHTDYNQKFKDKATLTADKSSSTAYMQLNSLTSEDSAVYYCARKYYGPFGMDYWGQGTSVTVSS
VL: EIFLTQSPAIMSASPGEKVTMTCSASTTVSYVHWYQQKSGTSPKRWIYDTSKLASGIPVRFSGSGSGTSYSLTISSMEAEDAATYYCQQWSTNPYTFGGGTKLEIKR
notes: T0002 combination 56 prints L/L
B4: WT 1-1 (antibody, V domains shown)
VH: QVQLQQSGTELAKPGASVKFSCKASDYTFSTYWMYWIKQRPGQGLEWIGYINPSTGHTEYNQKFKDKATLTADKSSSTAYMQLNSLTSEDSAVYYCARRYYGPFAMDYWGQGTSVTVSS
VL: EIFLTQSPAIMSASPGEKVTMTCSASSSVSYAHWYQQKSGTSPKRWIYDSSKIASGIPVRFSGSGSGTSYSLTISSMEAEDAATYYCQNWSTNPYTFGGGTKLEIKR
B5: WT 1-2 (antibody, V domains shown)
VH: QVQLQQSGTELAKPGASVKFSCKASDYTFTSYWMYWIKQRPGQGLEWIGYINPSSGHTEYNQRFKDKATLTADKSSSTAYMQLNSLTSEDSAVYYCARRYWGPFAMDYWGQGTSVTVSS
VL: EIFLTQSPAIMSASPGEKVTMTCSASSTVSYAHWYQQKSGTSPKRWLYDSSKLASGIPVRFSGSGSGTSYSLTISSMEAEDAATYYCQNWSSQPYTFGGGTKLEIKR
B6: WT 1-3 (antibody, V domains shown)
VH: QVQLQQSGTELAKPGASVKFSCKASDYTFTTYWMYWIKQRPGQGLEWIGYINPSTGHTEYNQKFKDKATLTADKSSSTAYMQLNSLTSEDSAVYYCARKYFGPFAMDYWGQGTSVTVSS
VL: EIFLTQSPAIMSASPGEKVTMTCSASTSVSYAHWYQQKSGTSPKRWIYDSSKLASGIPVRFSGSGSGTSYSLTISSMEAEDAATYYCQNWSSNPYTFGGGTKLEIKR
B7: WT 1-5 (antibody, V domains shown)
VH: QVQLQQSGTELAKPGASVKFSCKASDYTFSSYWMYWIKQRPGQGLEWIGYLNPSTGHTEYNQKFKDKATLTADKSSSTAYMQLNSLTSEDSAVYYCARKYWGPFAMDYWGQGTSVTVSS
VL: EIFLTQSPAIMSASPGEKVTMTCSASSSVSYAHWYQQKSGTSPKRWIYDSSKIASGIPVRFSGSGSGTSYSLTISSMEAEDAATYYCQNWSTNPYTFGGGTKLEIKR
B8: WT 1-6 (antibody, V domains shown)
VH: QVQLQQSGTELAKPGASVKFSCKASDYTFTSYWMYWIKQRPGQGLEWIGYLNPSSGHTEYNQRFKDKATLTADKSSSTAYMQLNSLTSEDSAVYYCARRYFGPFAMDYWGQGTSVTVSS
VL: EIFLTQSPAIMSASPGEKVTMTCSASSTVSYAHWYQQKSGTSPKRWLYDSSKLASGIPVRFSGSGSGTSYSLTISSMEAEDAATYYCQNWSTNPYTFGGGTKLEIKR
B9: WT 1-7 (antibody, V domains shown)
VH: QVQLQQSGTELAKPGASVKFSCKASDYTFTTYWMYWIKQRPGQGLEWIGYLNPSTGHTEYNQKFKDKATLTADKSSSTAYMQLNSLTSEDSAVYYCARRYYGPFAMDYWGQGTSVTVSS
VL: EIFLTQSPAIMSASPGEKVTMTCSASTSVSYAHWYQQKSGTSPKRWIYDSSKLASGIPVRFSGSGSGTSYSLTISSMEAEDAATYYCQNWSTNPYTFGGGTKLEIKR
B10: WT 1-8 (antibody, V domains shown)
VH: QVQLQQSGTELAKPGASVKFSCKASDYTFSTYWMYWIKQRPGQGLEWIGYINPSTGHTEYNQKFKDKATLTADKSSSTAYMQLNSLTSEDSAVYYCARRYWGPFAMDYWGQGTSVTVSS
VL: EIFLTQSPAIMSASPGEKVTMTCSASTTVSYAHWYQQKSGTSPKRWLYDSSKIASGIPVRFSGSGSGTSYSLTISSMEAEDAATYYCQNWSTQPYTFGGGTKLEIKR
B11: Mutation 1-13 (antibody, V domains shown)
VH: QVQLQQSGTELAKPGASVKFSCKASGYTFSSYWMYWIKQRPGQGLEWIGYLNPSSGHTDYNQRFKDKATLTADKSSSTAYMQLNSLTSEDSAVYYCARRYYGPFGMDYWGQGTSVTVSS
VL: EIFLTQSPAIMSASPGEKVTMTCSASSSVSYVHWYQQKSGTSPKRWIYDTSKIASGIPVRFSGSGSGTSYSLTISSMEAEDAATYYCQQWSTQPYTFGGGTKLEIKR
B12: Mutation 1-14 (antibody, V domains shown)
VH: QVQLQQSGTELAKPGASVKFSCKASGYTFTSYWMYWIKQRPGQGLEWIGYLNPSTGHTDYNQKFKDKATLTADKSSSTAYMQLNSLTSEDSAVYYCARRYWGPFGMDYWGQGTSVTVSS
VL: EIFLTQSPAIMSASPGEKVTMTCSASSTVSYVHWYQQKSGTSPKRWLYDTSKLASGIPVRFSGSGSGTSYSLTISSMEAEDAATYYCQQWSTQPYTFGGGTKLEIKR
B13: Mutation 1-15 (antibody, V domains shown)
VH: QVQLQQSGTELAKPGASVKFSCKASGYTFTTYWMYWIKQRPGQGLEWIGYLNPSSGHTDYNQRFKDKATLTADKSSSTAYMQLNSLTSEDSAVYYCARKYFGPFGMDYWGQGTSVTVSS
VL: EIFLTQSPAIMSASPGEKVTMTCSASTSVSYVHWYQQKSGTSPKRWIYDTSKLASGIPVRFSGSGSGTSYSLTISSMEAEDAATYYCQQWSTQPYTFGGGTKLEIKR
notes: CDR-VL3 cell prints 'TQ', read as T/Q
B14: Mutation 1-17 (antibody, V domains shown)
VH: QVQLQQSGTELAKPGASVKFSCKASGYTFSSYWMYWIKQRPGQGLEWIGYINPSTGHTDYNQRFKDKATLTADKSSSTAYMQLNSLTSEDSAVYYCARKYWGPFGMDYWGQGTSVTVSS
VL: EIFLTQSPAIMSASPGEKVTMTCSASSSVSYVHWYQQKSGTSPKRWIYDTSKIASGIPVRFSGSGSGTSYSLTISSMEAEDAATYYCQQWSSQPYTFGGGTKLEIKR

Molecular target: T1, cTnI quality control product recombinant protein (human, UniProt P19429 1-210, limits assumed)
T1 construct: the assay paragraphs only say cTnI; also called cardiac troponin I; cTnI antigen
Experiment: AMC biosensor, antibody on sensor
Protocol: Operating process: it is equilibrated in Buffer 1 (PBST) for 60 s, the antibody is immobilized in an antibody solution for 300 s, incubated in Buffer 2 (PBST) for 180 s, bound in antigen solution for 420 s, dissociated in the Buffer 2 for 1200 s, 10 mM of GLY solution with pH 1.69 and Buffer 3 are used for sensor regeneration, and data is output.

T1 sequence (P19429 whole entry): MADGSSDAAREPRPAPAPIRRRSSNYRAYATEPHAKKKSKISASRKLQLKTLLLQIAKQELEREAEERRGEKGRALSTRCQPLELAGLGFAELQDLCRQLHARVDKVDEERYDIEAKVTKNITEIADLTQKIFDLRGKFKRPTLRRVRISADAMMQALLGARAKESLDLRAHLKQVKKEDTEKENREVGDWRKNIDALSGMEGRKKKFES

Compared with B1, B2 is 4.9-fold lower in Kd: 8 nM for the first, 1.63 nM for the second. The second binds more tightly here.

Going from B3 to B4, the Kd rises from 2.07 nM to 68.4 nM (33-fold). The first binds more tightly here.

Compared with B5, B6 is 2.6-fold lower in Kd: 28.5 nM for the first, 10.8 nM for the second. The second binds more tightly here.

B7 and B8 are within 1.5-fold of each other in Kd: 48.6 nM for the first, 51.5 nM for the second.

First: B9
Second: B10
The Kd of the first is 2.6-fold lower: 28.6 nM for the first, 75.1 nM for the second.

Going from B11 to B12, the Kd rises from 4.42 nM to 7.84 nM (1.8-fold).

Compared with B13, B14 is 2.6-fold higher in Kd: 1.16 nM for the first, 2.98 nM for the second.

Compared with B1, B2 is 5.5-fold lower in koff: 0.0004 s⁻¹ for the first, 7.3e-05 s⁻¹ for the second.

Compared with B3, B4 is 26-fold higher in koff: 6.36e-05 s⁻¹ for the first, 0.00165 s⁻¹ for the second.

First: B5
Second: B6
The koff of the first is 2-fold higher: 0.000741 s⁻¹ for the first, 0.000372 s⁻¹ for the second.

B7 and B8 are within 1.5-fold of each other in koff: 0.0017 s⁻¹ for the first, 0.00131 s⁻¹ for the second.

First: B9
Second: B10
The koff of the first is 2.8-fold lower: 0.000795 s⁻¹ for the first, 0.00221 s⁻¹ for the second.

Going from B11 to B12, the koff rises from 7.82e-05 s⁻¹ to 0.000217 s⁻¹ (2.8-fold).

Compared with B13, B14 is 4.7-fold higher in koff: 2.1e-05 s⁻¹ for the first, 9.97e-05 s⁻¹ for the second.

B1 and B2 are within 1.5-fold of each other in kon: 50000 M⁻¹ s⁻¹ for the first, 44900 M⁻¹ s⁻¹ for the second.

B3 and B4 are within 1.5-fold of each other in kon: 30700 M⁻¹ s⁻¹ for the first, 24100 M⁻¹ s⁻¹ for the second.

B5 and B6 are within 1.5-fold of each other in kon: 26000 M⁻¹ s⁻¹ for the first, 34400 M⁻¹ s⁻¹ for the second.

B7 and B8 are within 1.5-fold of each other in kon: 35000 M⁻¹ s⁻¹ for the first, 25500 M⁻¹ s⁻¹ for the second.

B9 and B10 are within 1.5-fold of each other in kon: 27800 M⁻¹ s⁻¹ for the first, 29400 M⁻¹ s⁻¹ for the second.

Going from B11 to B12, the kon rises from 17700 M⁻¹ s⁻¹ to 27700 M⁻¹ s⁻¹ (1.6-fold).

Going from B13 to B14, the kon rises from 18100 M⁻¹ s⁻¹ to 33500 M⁻¹ s⁻¹ (1.9-fold).
